Data: patent US20120087916A1, “ANTI-ICAM-1 ANTIBODY, USES AND METHODS” (priority 2009, published 2012)
“Also recorded” adds a separate entry of the source.

Key:
[1] = test system: B-cell lymphoma; assay: SCID/B-cell lymphoma tumour xenograft models; format: in vivo, SCID mice; conditions: prophylactic and established models; data not shown
[2] = Pharmacokinetics in the rat, single IV bolus injection; format: in vivo
From the text: A pharmacokinetic (PK) study of BI-AB in the rat has been performed. In this study, the doses of the antibody tested were in such excess in relation to the target antigen concentration that any binding to the target antigen would not be of significant importance for the PK profile. This fact serves as the rationale for performing a PK study in a species where the antibody will not bind to the target antigen. The pharmacokinetics of BI-AB in the rat has been investigated following a single IV bolus injection at dose levels of 0.5, 2.5 and 10 mg/kg.

[3] = test system: OPM-2 myeloma cells; assay: SCID xenograft of ICAM-1-negative myeloma cell line; format: in vivo, SCID mice; conditions: ICAM-1-negative OPM-2; 2 mg/kg twice-weekly intraperitoneal from Day 1
Protocol: (§1) Antibody treatment with 2 mg/kg BI-AB or control IgG1 was started at Day 1 and was continued on a twice-weekly intraperitoneal dosing regimen. Mice were sacrificed when tumour sizes reached the ethical limit. […] Statistical significance was calculated relative to control antibody treatment using Student t test. Statistical significance was considered for *p<0.05, **p <0.01, and ***p<0.001. ICAM-1-intercellular adhesion molecule 1; SCID=severe combined immunodeficiency

[4] = test system: human multiple myeloma tumour cells; assay: Disseminated tumour model (advanced experimental multiple myeloma), intravenous tumour cell inoculation; format: in vivo, SCID mice
Protocol: SCID mice were irradiated 5 days before intravenous tumour cell inoculation. Animals received intravenous injections with antibody at 2 mg/kg or bortezomib (Velcade) at 0.5 mg/kg on Days 7, 10, 14, and 17 (as indicated by arrows in graph). There were 8 mice per treatment group. Statistical significance was calculated using Log-rank Graphpad Prism software. Significance was determined at *p<0.05, **p<0.01, and ***p<0.001.
BI-AB anti-myeloma activity has additionally been investigated in a disseminated tumour model (a well-established experimental model of human multiple myeloma) at an independent contract research organization. […] After 190 days, when the experiment was terminated, 25% of BI-AB-treated mice were still alive.

[5] = Pharmacokinetics in the cynomolgus monkey, escalation dose toxicity study; format: in vivo, cynomolgus monkeys; conditions: 1-100 mg/kg
From the text: • Table 1: BI-AB levels associated 10, 50, and 90% anti-tumour activity correlated with levels of receptor binding. • a—determined in the most sensitive setting in the ARH-77/SCID in vivo tumour model, i.e., early antibody administration. • b—determined in the advanced ARH-77/SCID in vivo tumour model (mice carrying established tumours) • Table 2: Single dose pharmacokinetics of BI-AB following single IV bolus injection • Table 3: Pharmacokinetics of BI-AB following single escalating IV bolus injection The pharmacokinetics of BI-AB was investigated at dose levels of 1, 2, 8, 20, 50, and 100 mg/kg in the escalation dose toxicity study in cynomolgus monkeys. Samples for plasma analysis were taken after all dose levels. […] Cmax were generally obtained at the first sampling time of 0.5 hours post-dose. However at 100 mg/kg the Cmax was reached 8 hours post-dose. Serum concentrations declined in a generally bi-phasic manner with an elimination time ranging from 69 to 264 hours. […] There was some carry-over of the compound between treatments due to the long half-life of BI-AB.
The pharmacokinetics of BI-AB was investigated at dose levels of 1, 2, 8, 20, 50, and 100 mg/kg in the escalation dose toxicity study in cynomolgus monkeys. Samples for plasma analysis were taken after all dose levels.
Cmax were generally obtained at the first sampling time of 0.5 hours post-dose. However at 100 mg/kg the Cmax was reached 8 hours post-dose. Serum concentrations declined in a generally bi-phasic manner with an elimination time ranging from 69 to 264 hours. […] There was some carry-over of the compound between treatments due to the long half-life of BI-AB.

[6] = BI-AB serum trough levels by ELISA in the ARH-77/SCID tumour model; format: in vivo, SCID mice; conditions: corresponds to 0.004 mg/kg dose; from fitted five parameter log-log curve
Protocol: (§2) FIG. 5: Calculation of MABEL: determination of BI-AB IC10 value using in vivo pharmacology assay and in vitro correlation with binding. • (A) Tumour cells were injected subcutaneously into the left flank of SCID mice (n=8 per group). Mice received twice-weekly intraperitoneal injections with BI-AB at a range of 20 to 0.002 mg/kg (until control group had to be sacrificed). […] IC10=concentration at which there is 10% inhibition; ELISA=enzyme-linked immunosorbent assay; MABEL=minimum anticipated biological effect level. • (D) ARH-77myeloma cells were injected subcutaneously into the left flank of SCID mice (n=8 per group). Mice received twice-weekly intravenous injections of BI-AB at 0.002-20 mg/kg until control group had to be sacrificed. Blood samples were collected at termination and analyzed by ELISA to determine BI-AB serum trough levels. Trough BI-AB serum concentrations were plotted as a function of anti-tumor activity and fitted using five parameter log-log curve and XLfit software (IDBS, Guildford, United Kingdom).
Mean BI-AB serum trough concentrations of different mouse dose groups were determined by ELISA analysis of blood samples collected at different time-points during the course of in vivo experimentation. […]

[7] = test system: NCI-H929, EJM, RPMI-8226 myeloma cells; assay: SCID xenografts of CD20-negative ICAM-1-positive myeloma cell lines; format: in vivo, SCID mice; conditions: CD20-negative ICAM-1-positive lines, 2 mg/kg twice-weekly intraperitoneal from Day 1
Protocol: as §1

[8] = target: T1, ICAM-1 epitopes on ARH-77 myeloma cells (Homo sapiens, UniProt P05362); assay: Receptor occupancy / binding in vitro using human tumour cells
T1 construct: endogenous in cells; host or cells: ARH-77 myeloma cells
T1 sequence (P05362 28-532): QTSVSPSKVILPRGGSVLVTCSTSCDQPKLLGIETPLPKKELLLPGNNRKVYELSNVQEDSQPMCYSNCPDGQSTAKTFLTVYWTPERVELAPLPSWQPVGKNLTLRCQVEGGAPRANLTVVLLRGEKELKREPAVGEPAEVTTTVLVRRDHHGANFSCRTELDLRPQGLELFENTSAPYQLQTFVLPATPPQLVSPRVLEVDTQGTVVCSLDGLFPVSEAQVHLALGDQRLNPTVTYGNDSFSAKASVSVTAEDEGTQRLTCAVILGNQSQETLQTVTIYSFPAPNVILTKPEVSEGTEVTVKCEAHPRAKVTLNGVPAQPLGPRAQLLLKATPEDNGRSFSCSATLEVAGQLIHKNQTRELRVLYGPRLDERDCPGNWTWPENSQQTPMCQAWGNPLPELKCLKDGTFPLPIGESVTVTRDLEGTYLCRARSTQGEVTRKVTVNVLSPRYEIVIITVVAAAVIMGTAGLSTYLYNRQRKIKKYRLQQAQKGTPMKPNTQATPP
Protocol: as §2
Receptor occupancy has been examined in vitro using human tumour cells and the BI-AB level corresponding to binding saturation has been identified. It is assumed that at this concentration, ICAM-1 epitopes on cells of the vascular compartment should be saturated, and any side effects related to the physiological function of ICAM-1 are expected to be […]. […]

[9] = target: ICAM-1 (Homo sapiens, UniProt P05362); assay: Binding of BI-AB to ICAM-1
Chain of ICAM-1 (P05362 28-532): as above
From the text: BI-AB is a fully human immunoglobulin G subtype 1 (IgG1) monoclonal antibody expressed in Chinese Hamster Ovarian (CHO) cells. The BI-AB antibody has a theoretical molecular weight of approximately 144 kDa based on the predicted amino acid sequence. Mass spectrometry, peptide mapping and SDS-PAGE will determine molecular mass and primary and secondary structures. The biological activity is quantified using an ELISA assay, which quantitatively measures the binding of the BI-AB to ICAM-1.

[10] = test system: ARH-77 myeloma cells; assay: SCID/ARH-77 myeloma xenograft model (early and established subcutaneous tumours); format: in vivo, SCID mice
Protocol: There were 8 to 10 animals per treatment group. • A and B: Early tumour model; treatment started 1 day after myeloma cell inoculation and continued until tumour volumes reached the ethical limit. (A) Tumour volume as a function of antibody dose. (B) Kaplan-Meier survival graph as a function of antibody dose. • (C) Established xenograft model; treatment with antibodies started when tumours reached a volume of approximately 100 mm^3. […] Statistical significance was calculated relative to control antibody treatment using Student t test (tumour volume) or the log-rank test (mouse survival) using Graphpad Prism software. Statistical significance was considered for *p<0.05, **p<0.01, and ***p<0.001. Graphs illustrate representative experiments out of several performed.
Blood samples were collected at termination and analyzed by ELISA to determine BI-AB serum trough levels. Trough BI-AB serum concentrations were plotted as a function of anti-tumor activity and fitted using five parameter log-log curve and XLfit software (IDBS, Guildford, United Kingdom).

[11] = single IV bolus 0.5, 2.5 and 10 mg/kg

B1: BI-AB: fully human, high-affinity IgG1 mAb specific for ICAM-1 generated from the n-CoDeR human antibody fragment library (antibody, V domains shown)
VH: EVQLLESGGGLVQPGGSLRLSCAASGFTFSNAWMSWVRQAPGKGLEWVAFIWYDGSNKYYADSVKGRFTISRDNSKNTLYLQMNSLRAEDTAVYYCARYSGWYFDYWGQGTLVTVSS
VL: QSVLTQPPSASGTPGQRVTISCTGSSSNIGAGYDVHWYQQLPGTAPKLLIYDNNNRPSGVPDRFSGSKSGTSASLAISGLRSEDEADYYCQSYDSSLSAWLFGGGTKLTVLG
anti-lymphoma activity [1]: significant anti-lymphoma activity | systemic exposure versus sex ([2]; single IV bolus): generally independent of sex | clearance and volumes of distribution (Vz and Vss) versus dose [2, 11]: dose independent | systemic exposure versus dose [2, 11]: increased roughly in proportion to dose | time of maximum serum concentrations [2, 11]: within the first hour | effect on tumour growth [3]: no effect on tumour growth; also recorded: did not affect tumour growth | survival compared with control-treated mice ([4]; 2 mg/kg intravenous Days 7, 10, 14, 17 (or start 1 day) after tumour cell inoculation): confers protection against advanced experimental multiple myeloma; also recorded: significantly prolonged survival | benchmark against Bortezomib ([4]; BI-AB 2 mg/kg vs bortezomib (Velcade) 0.5 mg/kg): superior | treated mice still alive ([4]; after 190 days, when the experiment was terminated): 25% | systemic exposure versus dose [5]: increased roughly in proportion to the dose | systemic exposure versus gender [5]: without gender deviations | volumes of distribution versus dose [5]: no dose-dependency | steady state trough serum concentration at IC10 inhibition of tumour growth [6]: 0.028 µg/mL | anti-myeloma activity (tumour growth) [7]: significant and ICAM-1-dependent anti-myeloma activity | ARH-77 ICAM-1 epitopes occupied by antibody in vitro ([8]; at 28 ng/mL BI-AB): approximately 30% | binding to ARH-77 myeloma cells ([8]; in vitro): binds to ARH-77 myeloma cells in a dose-dependent manner | affinity and specificity of binding to ICAM-1 [9]: binds with high affinity and specificity to ICAM-1 | efficacy and potency compared with Rituximab (reducing tumour growth, prolonging survival) ([10]; SCID/ARH-77, prophylactic and established xenograft models, Rituximab e.g. 20 mg/kg): more efficacious and potent compared with Rituximab; also recorded: comparable or improved activity | in vivo anti-myeloma efficacy (tumour volume, survival) ([10]; SCID/ARH-77 xenograft, twice-weekly intraperitoneal, doses 0.016, 0.16, 1.6 (16) mg/kg): significant in vivo anti-myeloma efficacy and potency | MABEL/IC10 dose (10% inhibition of tumour growth) ([10]; early antibody administration, twice-weekly dosing regimen): 4 µg/kg
